Assay results taken from patent publication US20090023158A1.

For gamma secretase (endogenous, HEK cells), which “AICD production and signaling activity” value (C99GVP-G25S) is on record?
Its value is “little difference in their respective AICD production (FIG. 9A, lower panels) and signaling activity (FIG. 9D)”.

And the “secreted Aβ” value (C99GVP-G25S)?
Its value is “the other two mutations, G25S and N27S, showed no obvious effect on secreted Aβ”.

And the “AICD production and signaling activity” value (C99GVP-K28S)?
Its value is “little difference in their respective AICD production (FIG. 9A, lower panels) and signaling activity (FIG. 9D)”.

And the “Aβ40 (secreted, ELISA)” value (C99GVP-K28S)?
Its value is “the K28S substitution resulted in an even more substantial (˜90%) decrease in both measurements”.

And the “total Aβ (secreted)” value (C99GVP-K28S)?
The value was “the K28S substitution resulted in an even more substantial (˜90%) decrease in both measurements”.

What about the “AICD production and signaling activity” value (C99GVP-N27S) of the same substance?
The value was “little difference in their respective AICD production (FIG. 9A, lower panels) and signaling activity (FIG. 9D)”.

And the “secreted Aβ” value (C99GVP-N27S)?
Its value is “the other two mutations, G25S and N27S, showed no obvious effect on secreted Aβ”.

What about the “AICD production and signaling activity” value (C99GVP-S26L) of the same substance?
Its value is “little difference in their respective AICD production (FIG. 9A, lower panels) and signaling activity (FIG. 9D)”.

What about the “Aβ40 (secreted, ELISA)” value (C99GVP-S26L) of the same substance?
Its value is “a 52.7±2.3% drop of Aβ40”.

What about the “total Aβ (secreted)” value (C99GVP-S26L) of the same substance?
Its value is “The S26L mutation led to a 65.7±8.5% reduction in total Aβ”.

And the “secreted Aβ” value (C99GVP-SLSS)?
The value was “This mutation led to a marked reduction (˜97%) in secreted Aβ”.

What about the Aβ secretion (C99GVP-SREBP1-gsnk) of the same substance?
Its Aβ secretion is “also maintained normal Aβ secretion”.
